Test results taken from the RNAGym collection of RNA variant scans (doi:10.1073/pnas.2313332121).

B1: TPR t1 (parent)
chain: GACCAAUCUGCCCUCAGAGCUCGAGAACAUCUUCGGAUGCAGAGGAGGCAGGCUUCGGUGGCGCGAUAGCGCCAACGUCCUCAACCUCCAAUGCAUCCCACCACAUGAUGAUGCCUGAAGAGCCUUGGUUUUUUG

Variants of: B1
Assay: polymerase ribozyme fitness, log enrichment relative to wild type (log ratio); higher = more active; in vitro selection for triplet polymerase activity
Procedure, shortened: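 Genotype fitness is the logarithm of its enrichment divided by wild-type enrichment, using inverse-variance-weighted averages of replicates. That logarithm is base 2. Enrichment was measured by Illumina sequencing of input and output libraries from one triplicate in vitro selection round, with frozen incubation at −7 °C, on PCR-built, transcribed mutant libraries of each subunit of a heterodimeric triplet polymerase ribozyme, retaining genotypes with ≥10 input reads and ≥1 read per output.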

Row | Variant | polymerase ribozyme fitness (log ratio)
1 | C4U G35U C62U C98A C123G | -2.75
2 | A43U C62A | -2.39
3 | G113U G120A | -2.2
4 | C40G A84G | -2.06
5 | U55A G63A C85G C88G | -2.1
6 | C40A G52A C73U C104U U126A | -3.9
7 | A46G C85G | -2.68
8 | G63A U106A U133G | -1.47
9 | C28U U55C G71A | -3.34
10 | C101A U112G C115A | -0.657
11 | C64U U106G G120C | -0.96
12 | C3U C8A G25A C31G C70G U92A C94A C98G C99G G117U | -6.98
13 | C13U A24G A50U | -1.91
14 | A43C C85U C115G | -4.93
15 | U78C C114A | -1.63
16 | G60U G110C | -2.76
17 | A41C C72A U92G G120U U129C | -2.57
18 | A26G C62U U133A | -4.26
19 | C53A C72G | 0.124
20 | G10U C34A G44A C72A | -5.99
21 | U55A G57C U78C A103G C124A U125A | -4.66
22 | C53A G71A C85A | -4.06
23 | C70A G127C | -2.17
24 | C34A G117U | -6.2

Row | Variant | polymerase ribozyme fitness (log ratio)
25 | G44U C56G G61U C89A C94G G122A | -4.78
26 | C72G C123A | -0.175
27 | G10C A16G A26U C72U C98U C115G | -6.74
28 | A105G G120C | -1.97
29 | C4G U7G C13U G113A | -1.14
30 | C88G C124U | 0.871
31 | C13A U78G C88A A105U | -4.55
32 | C85A G128C | -4.07
33 | A26G C73A | -1.78
34 | C82G A83C C115G G122A | -2.67
35 | C28A G47A C79U G110C | -2.69
36 | G10U G61U | 0.128
37 | C13G G63C | -1.92
38 | A118U G120U U133G | -0.107
39 | G60C U78A A91U | -2.07
40 | C8U G47C G57A U92C | -4.38
41 | C8G C28A C72A | -4.41
42 | C3U C64U G71U C85G A121U | -4.22
43 | A6U C53G | -0.289
44 | G19A G48U C49U G69U G93U | -4.49
45 | G42A G45C G61A A105C C115U | -6.55
46 | C13U C20G | -4.55
47 | C79U C89A G117U C123G | -1.41
48 | C8A U33A G42U U112A C123A | -6.39

Row | Variant | polymerase ribozyme fitness (log ratio)
49 | U32C A105G U109G G117A | -7.37
50 | C15A A90G G93A A103U G120U | -6.55
51 | C72U U133C | 0.275
52 | U9A G47U A50C | -1.68
53 | A2C A27C G127C G135U | -6.34
54 | A24C C56U C114G | -5.71
55 | A75U C86U C88U | 0.294
56 | G17C G19U G63U A91C C124A | -5.7
57 | C64U U130A | -0.073
58 | C11G G120C | 1.89
59 | G39C C72U G93U A121U | 0.127
60 | A24G G48A C64U | -2.39
61 | C12U G17U | -0.854
62 | A2U C11G C28U G61A | -2.82
63 | C70A C102U U112C | -2.21
64 | C72A C86G C89U | -1.07
65 | C62A A68G C72U | -3.88
66 | C99U G128A U129A | -5.76
67 | C12G A26U G77A | -2.58
68 | G58C C98G | -5.66
69 | U78A G120A | 0.814
70 | C82U C94U C114A | -2.17
71 | C28G G48A C72U | -3.41
72 | G117C G135U | -3.37

Row | Variant | polymerase ribozyme fitness (log ratio)
73 | C88A G107A | -5.92
74 | C3U G45U G60U A91G C123U | -2.3
75 | G39C A43U A90G C114U U125A | -2.64
76 | G107A C114G G128A | -7.24
77 | G10U G60C G69U A108G | -4.87
78 | A111G G120A | -0.416
79 | C3A G61U C115A | -1.78
80 | G69C G120C | -0.251
81 | C8G C56A | 0.399
82 | A27U G47U | -2.07
83 | A29U C53G U81A A121U U132A | -1.75
84 | G51C U78C | -4.89
85 | G60U C94G G110C G117A | -7.56
86 | C40U A119G U126G G127U | -0.212
87 | G19U A41G G63U | -4.85
88 | U112C C124G | 1.79
89 | U9A C72G | -0.0842
90 | U21G A50U G69A A108G G110A U112G | -6.33
91 | C8A A46C C56G G127A | -3.01
92 | C40U G113A | -1.41
93 | G63C U130A | -0.551
94 | C31G C99G | -6.63
95 | C8G C11U U21C C34U | -3.99
96 | A6U C53G C82A A83G | -0.829

Row | Variant | polymerase ribozyme fitness (log ratio)
97 | C79U C88U | -0.115
98 | U7G A27U G48A U112A | -1.8
99 | C72U C76U A121C | 1.1
100 | G61C U116C | -2.77
101 | C12G G51C G71A | -6.1
102 | A66C C82A | -1.46
103 | U14C C49U A50U U55A | -6.51
104 | A29G C40A C99G A111G | -7.69
105 | C15A C76U A83U C86A | -3.37
106 | A2U A37U U54A G69U U78G A105G | -3.36
107 | A90G U92G G107U C114U G127U | -5.63
108 | U7G G39A C114G | -2.02
109 | U33A U59A G61U U106G | -5.96
110 | C13U C70A A121G | 0.554
111 | C72U A84G C114A C115A | -6.51
112 | G35U A90C C97G A121C | -7.34
113 | C49G C70U U129A | -2.63
114 | A6U U55C C76U | -0.164
115 | C56G U96G | -1.51
116 | C12U C40U | -0.543
117 | A5C U14A A46U | -4.39
118 | G36A G61U U96G | -1.71
119 | G36U G42U C56G C70U U112C C124U | -2.29
120 | U55C C70A C97U U116A | -4.83

Row | Variant | polymerase ribozyme fitness (log ratio)
121 | A18C U32C A95C G117A U129C | -3.97
122 | C12G G117C U126G | -3.28
123 | C64A G120C | -3.88
124 | C20G C40A G58C A121U | -4.66
125 | C124G U133A | 0.826
126 | C4A C72U U81A G117U G122A U132A | -6.42
127 | U9G G51C C56G C62U C80G A119U | -0.0854
128 | U7A C11A U14G G45U C53U C70A G113A G120U U133A | -4.43
129 | G19A C73U C86U U96A G110A | -5.32
130 | C70A G71U A75G C99A A121U G127U | -4.8
131 | G93U A121U U131G | 0.33
132 | G10U A27G U59A C98U | -6.42
133 | A41G C53A C64A A121G | -4.97
134 | G25U C56G U81G A121G C124U | -5.96
135 | U7A G42A C86U | -1.98
136 | U14C U21C G61A C101U | -3.37
137 | G42A C64G C114G G117C | -7.17
138 | G69A A121U U126G | -2.09
139 | U9G U14A | -0.133
140 | C8G C20A C72U G77A | -1.87
141 | A95G U112A A119U | 0.842
142 | C34A C89A | -5.68
143 | C34A C89U | -4.08
144 | A37G A118U | 0.234

Row | Variant | polymerase ribozyme fitness (log ratio)
145 | A66C A84C C123U U133G | -0.245
146 | U54C C115A | -0.609
147 | C73U G117U | -1.43
148 | A95U U96A C101G U106C C124A | -4.41
149 | C8U U55C C64G U112A | -6.22
150 | G36C G44A A74U C79G C101U | -4.54
151 | A46U C114G | -3.78
152 | C8G G44U | -0.116
153 | A46U G48A C62U | -2.23
154 | G39U A66U A119G | -0.493
155 | A6C C31G C34U G42U G93C A111C | -6.9
156 | U9G C20A U59A | -3.12
157 | G120C U132C | 1.38
158 | C40A G71C C101A U131C | -3.67
159 | A18G A46G C72U | -4.38
160 | G39U C73U G77A | -1.39
161 | G48A G93A U96C C99U | -4.9
162 | G63U | -1.18
163 | G47A U78C | -1.09
164 | A2U C8U A41C C56G G77U G122A | -2.93
165 | U59A C94A | -0.84
166 | G10U G61A C123A U126G | -1.39
167 | A43G G48A G63A U78C U112C G127U | -3.79
